Assay [1] addresses T1, Cynomolgus TCR(AEA41865/AEA41866)-zipper protein (cynomolgus monkey).
T1 construct: also called cyTCR-zipper protein; cynoTCR zipper
T1 TCR alpha: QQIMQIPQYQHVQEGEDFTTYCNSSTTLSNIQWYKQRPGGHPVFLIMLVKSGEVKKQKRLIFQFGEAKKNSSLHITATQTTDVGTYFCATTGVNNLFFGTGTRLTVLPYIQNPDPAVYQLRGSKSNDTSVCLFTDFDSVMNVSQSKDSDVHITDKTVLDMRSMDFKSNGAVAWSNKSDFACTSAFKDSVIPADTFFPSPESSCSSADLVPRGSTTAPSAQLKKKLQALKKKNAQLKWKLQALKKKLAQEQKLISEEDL
T1 TCR beta: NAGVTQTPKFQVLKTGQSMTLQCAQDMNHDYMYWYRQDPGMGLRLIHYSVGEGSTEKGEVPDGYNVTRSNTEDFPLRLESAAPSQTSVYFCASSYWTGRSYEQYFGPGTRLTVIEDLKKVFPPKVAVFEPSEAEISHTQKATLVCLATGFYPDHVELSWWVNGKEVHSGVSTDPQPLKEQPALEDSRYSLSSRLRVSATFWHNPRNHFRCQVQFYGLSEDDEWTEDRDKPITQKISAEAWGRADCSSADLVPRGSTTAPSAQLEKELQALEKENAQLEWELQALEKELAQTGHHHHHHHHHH
Kind of assay: table head: SPR ProteOn XPR36; text: BLI, Octet RED384, 25 C, immobilised TCR-zipper. The method, then: (§1) Affinity constants (KD) were calculated applying a 1:1 interaction model using the ForteBio Data Analysis software.
A general note: In BLI a coated tip is dipped into the sample, and binding shifts an interference pattern.

For assay [2], the target named is T2, Human T cell receptor on human primary T cells (human, UniProt P01848 1-140; P01850 1-176).
T2 construct: whole, on cells
T2 TCR alpha (looked up): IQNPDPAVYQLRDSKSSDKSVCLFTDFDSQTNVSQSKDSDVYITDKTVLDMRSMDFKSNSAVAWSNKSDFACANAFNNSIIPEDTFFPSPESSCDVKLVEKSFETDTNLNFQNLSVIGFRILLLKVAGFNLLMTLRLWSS
T2 TCR beta (looked up): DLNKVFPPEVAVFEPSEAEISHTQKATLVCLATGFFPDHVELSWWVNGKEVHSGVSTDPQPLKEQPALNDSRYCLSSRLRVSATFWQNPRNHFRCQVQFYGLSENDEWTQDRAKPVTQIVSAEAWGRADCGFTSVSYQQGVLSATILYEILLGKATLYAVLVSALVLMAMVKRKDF
Kind of assay: flow cytometry, human primary T cells.
Method: (§2) The ISVD variants were characterized for binding to CHO-K1 huTCR(2XN9)/huCD3 or to human and cynomolgus primary T cells. […] Next, cells were washed 3 times with FACS buffer and incubated with 1 μg/ml ANTI-FLAG® M2 Ab (Sigma, F1804) and washed again. […] Subsequently, cells were resuspended in FACS buffer supplemented with 5 nM TO-PRO®-3 Iodide to distinguish live from dead cells, which are removed during the gating procedure. Cells were analyzed using a FACS Array flow cytometer (BD Biosciences) and Flowing Software. First a P1 population which represented more than 80% of the total cell population was selected based on FSC-SSC distribution. In this gate, 10000 cells were counted during acquisition. From this population the TO-PRO®-3+cells (dead cells) were excluded and the mean fluorescence intensity (MFI) PE value was calculated.

In assay [3] the target is T2, Human T cell receptor on human primary …. Briefly: flow cytometry, human primary T cells.
Method: as §2
The target in assay [4] is T3, Cynomolgus TCR(AEA41865/AEA41866)-zipper protein (cynomolgus monkey).
T3 construct: also called cyTCR-zipper; cynoTCR-zipper protein
T3 TCR alpha: T1 TCR alpha
T3 TCR beta: T1 TCR beta
Briefly: BLI (Octet RED384), KD on cyTCR-zipper against KD on huTCR-zipper. The method, then:
as §1

Assay [5] deals with T3, Cynomolgus …. Kind of assay: SPR (ProteOn XPR36, 37°C), KD on huTCR-zipper against KD on cyTCR-zipper.
In assay [6] the target is T3, Cynomolgus …. Kind of assay: SPR (ProteOn XPR36), KD on cyTCR-zipper against KD on huTCR-zipper.
From the text: HuTCR-zipper or cyTCR-zipper protein was immobilized on a GLC sensor chip (between 100-200 RU) via amine coupling chemistry, using EDC/NHS for activation of the carboxyl groups on the chip surface (running buffer: HBS-EP+, pH7.4). […] Processed sensorgrams were fitted with the Langmuir model (1:1 interaction) using ProteOn Manager 3.1.0 (Version 3.1.0.6) software.
Assay [7] addresses T1, Cynomolgus …. Kind of assay: SPR, ProteOn XPR36, 37 C, immobilised TCR-zipper.
From the text: In brief, huTCR-zipper or cyTCR-zipper protein was immobilized on a GLC sensor chip (between 100-200 RU) via amine coupling chemistry, using EDC/NHS for activation of the carboxyl groups on the chip surface (running buffer: HBS-EP+, pH7.4). […] Processed sensorgrams were fitted with the Langmuir model (1:1 interaction) using ProteOn Manager 3.1.0 (Version 3.1.0.6) software.
The target of assay [8] is T2, Human T cell receptor on human primary …. Kind of assay: flow cytometry competition with Flag3-His6-tagged anti-TCR ISVD ligand, human primary T cells.
Method: (§3) Subsequently, cells were resuspended in FACS buffer supplemented with 1 μg/ml Propidium Iodide (PI, Sigma, P4170) to distinguish live from dead cells. Cells were analyzed using a FACS Array flow cytometer (BD Biosciences) using Flowing Software. First a P1 population which represented more than 80% of the total cell population was selected based on FSC-SSC distribution. In this gate, 10000 cells were counted during acquisition. From this population the Propidium iodide or TO-PRO©-3 Iodide positive cells (dead cells) were excluded and the median or Mean PE value was calculated.
Assay [9] concerns the target T4, Cynomolgus T cell receptor on the HSC-F cynomolgus T cell line (cynomolgus monkey).
T4 construct: whole, on cells; also called HSC-F cells; HSC-F cyno T cell line (NIBIO JCRB1164)
Briefly: flow cytometry competition with Flag3-His6-tagged anti-TCR ISVD ligand, HSC-F cells.
Method: as §3

In assay [10] the target is T5, cynomolgus CD123 on cells (cynomolgus monkey).
T5 construct: whole, on cells; also called HEK293 cyno CD123; cynomolgus CD123 transfected cell lines
Kind of assay: flow cytometry on transfected cells, cynomolgus CD123 against human CD123.

In assay [11] the target is T2, Human T cell receptor on human primary …. Briefly: flow cytometry on human primary T cells; Flag3-His6-tagged ISVD, anti-FLAG M2 + PE goat anti-mouse; MFI (mean PE). (A flow cytometer gives signals particle by particle.)
Method: as §2
For assay [12], the target named is T6, Cynomolgus TCR/cynomolgus CD3 complex on CHO-K1 cells (rhesus monkey (constant domains …)).
T6 construct: also called CHO-K1 cyTCR/cyCD3
T6 TCR alpha: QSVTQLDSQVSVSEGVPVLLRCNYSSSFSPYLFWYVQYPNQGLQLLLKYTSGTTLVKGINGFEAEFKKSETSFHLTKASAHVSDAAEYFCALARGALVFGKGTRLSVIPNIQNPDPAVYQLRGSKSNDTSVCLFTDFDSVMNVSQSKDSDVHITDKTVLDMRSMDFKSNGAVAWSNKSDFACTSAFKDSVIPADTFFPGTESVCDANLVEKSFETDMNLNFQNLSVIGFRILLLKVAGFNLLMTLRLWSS
T6 TCR beta: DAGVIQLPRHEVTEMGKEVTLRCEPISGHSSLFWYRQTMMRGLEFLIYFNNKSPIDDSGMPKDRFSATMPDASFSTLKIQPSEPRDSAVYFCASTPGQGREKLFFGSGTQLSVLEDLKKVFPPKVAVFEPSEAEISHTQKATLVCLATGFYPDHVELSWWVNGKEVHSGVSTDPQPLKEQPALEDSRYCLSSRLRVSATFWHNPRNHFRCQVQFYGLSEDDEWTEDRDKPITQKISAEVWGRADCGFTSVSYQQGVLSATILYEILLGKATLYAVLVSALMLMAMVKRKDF
T6 chain 3: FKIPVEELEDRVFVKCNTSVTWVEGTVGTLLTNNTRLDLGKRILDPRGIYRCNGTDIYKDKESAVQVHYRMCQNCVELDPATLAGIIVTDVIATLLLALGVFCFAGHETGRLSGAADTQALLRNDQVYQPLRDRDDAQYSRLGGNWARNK
T6 chain 4: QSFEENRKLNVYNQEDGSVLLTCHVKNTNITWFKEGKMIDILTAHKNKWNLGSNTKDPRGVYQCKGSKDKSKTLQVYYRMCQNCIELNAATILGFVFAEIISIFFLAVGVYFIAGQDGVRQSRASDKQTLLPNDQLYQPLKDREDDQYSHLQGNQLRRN
T6 chain 5: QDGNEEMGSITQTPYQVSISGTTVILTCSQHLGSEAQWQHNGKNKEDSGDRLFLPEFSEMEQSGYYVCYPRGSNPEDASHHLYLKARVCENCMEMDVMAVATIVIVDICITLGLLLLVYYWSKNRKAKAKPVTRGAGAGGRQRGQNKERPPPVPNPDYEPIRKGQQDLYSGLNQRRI
T6 chain 6: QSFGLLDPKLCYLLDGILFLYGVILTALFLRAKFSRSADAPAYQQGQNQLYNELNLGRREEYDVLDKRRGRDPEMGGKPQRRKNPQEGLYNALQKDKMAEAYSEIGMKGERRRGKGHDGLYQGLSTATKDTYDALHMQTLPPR
Kind of assay: flow cytometry on CHO-K1 cyTCR/cyCD3 cells; Flag3-His6-tagged ISVD, anti-FLAG M2 + PE goat anti-mouse; MFI (mean PE) [panel CHO-K1 cyTCR/cyCD3].
Method: Next, cells were washed 3 times with FACS buffer and incubated with 1 μg/ml ANTI-FLAG® M2 Ab (Sigma, F1804) and washed again. […] Subsequently, cells were resuspended in FACS buffer supplemented with 5 nM TO-PRO®-3 Iodide to distinguish live from dead cells, which are removed during the gating procedure. Cells were analyzed using a FACS Array flow cytometer (BD Biosciences) and Flowing Software. First a P1 population which represented more than 80% of the total cell population was selected based on FSC-SSC distribution. In this gate, 10000 cells were counted during acquisition. From this population the TO-PRO®-3+ cells (dead cells) were excluded and the mean fluorescence intensity (MFI) PE value was calculated.

Assay [13] deals with T7, cynomolgus CD33 on cells (cynomolgus monkey).
T7 construct: whole, on cells; also called CHO cy CD33; CHO Flp-In cynoCD33
Briefly: flow cytometry on transfected cells, cynomolgus CD33 against human CD33.

Numbering of substitutions follows the chain as printed. Read-outs that look alike come from different tables or passages of the source. Some results are limits rather than exact numbers.

The Kd is the free concentration of one partner at which half of the binding sites on the other are occupied at equilibrium, for simple one-to-one binding. For orientation: EC50 means the concentration at which the effect is half-maximal. A word on the IC50: it is the midpoint of a concentration-inhibition curve.

B1: T0170056G05 (VHH, not shown: small tags and cut ends)
VHH: EVQLVESGGGLVQPGGSLRLSCVASGDVHKINFLGWYRQAPGKEREKVAHISIGDQTDYADSAKGRFTISRDESKNMVYLQMNSLKPEDTAVYFCRAFSRIYPYDYWGQGTLVTVSS
notes: also called T01700056G05; parental anti-TCR ISVD
In assay [1], B1 returned a Kd of 170 nM. Further, the EC50 in [2] was found to be 83 nM; in assay [3] it was 140 nM.

B2: T0170056G05 (VHH, not shown: small tags and cut ends)
VHH: B1 VHH
notes: as for B1
Take B2: the “difference in human-cynomolgus cross-reactivity based on KD” value in [4] amounted to 4.5 fold.

B3: T017000680 (VHH)
VHH: B1 VHH with E1D, L11V, D27Y, L34Y, M77T, K86R, V92A, F94Y, F98L, Y102W
As to B3, in [5], the “delta for human-cynomolgus cross-reactivity based on KD” value stood at 1.8 fold.

B4: T017000624 (VHH, not shown: small tags and cut ends)
VHH: B1 VHH with L11V, D27Y, L34Y, M77T, K86R, V92L, F94Y, F98L, Y102W
On to B4, for which the “difference in human-cynomolgus cross-reactivity based on KD” value in assay [6] was 2.6 fold.

B5: T017000680 (VHH)
VHH: B1 VHH with E1D, L11V, D27Y, L34Y, M77T, K86R, V92A, F94Y, F98L, Y102W
Molecule B5 showed a Kd in assay [7] of 4.9 nM. The IC50 turned out to be 100 nM in assay [8] and 730 nM in assay [9].

B6: monovalent CD123 building block (VHH)
VHH: EVQLVESGGGVVQPGGSLRLSCAASGVIFSGNVMGWYRRQAPGKEREWVAAIAEGGSILYRDSVKGRFTISRDNAKNTVYLQMNSLRPEDTALYYCNSHPPVLPYWGQGTLVTVSS
For the molecule B6, the “difference in EC50 between human and cynomolgus monkey” value in assay [10] stood at 3 fold.

B7: cAbLys3 (VHH, not shown: small tags and cut ends)
VHH: DVQLQASGGGSVQAGGSLRLSCAASGYTIGPYCMGWFRQAPGKEREGVAAINMGGGITYYADSVKGRFTISQDNAKNTVYLLMNSLEPEDTAIYYCAADSTIYASYYECGHGLSTGGYGYDSWGQGTQVTVSS
notes: also called irrelevant anti-egg lysozyme ISVD
Turning to B7, the binding result in assay [11] and in assay [12] was “no binding (tested: 3e-6 M)” each time.

B8: monovalent CD33 building block (VHH)
VHH: EVQLVESGGGVVQPGGSLRLSCAASGGVFRLNSMGWFRQAPGKQRELVAIITSDGDTNYADSVKGRFTISRDQAKNTVYLQMNSLRPEDTALYYCQITYSTSSYSFPINTWGQGTLVTVSS
Turning to B8, the “difference in EC50 between human and cynomolgus monkey” value in assay [13] was below 2 fold.

These data come from patent US20240092919A1 (Ablynx, published 2024).
